We go through 1 sequence from PMC9279936.

In general, Kd refers to the free concentration of one partner at which half of the binding sites on the other are occupied at equilibrium, for simple one-to-one binding.

Data set [1] relates to influenza A virus hemagglutinin (on whole virus particles) (Influenza A virus (strain not in the material)). Nature of the data set: BLI. The conditions noted are these: BLI: 10 mM Tris-HCl pH 7.5, 140 mM NaCl, 10 mM KCl ([…], temperature not stated; cited from earlier work.
For data set [2] the test system is unchanged. Briefly: BLI. The conditions noted are these: BLI: 10 mM Tris-HCl pH 7.5, 140 mM NaCl, 10 mM KCl ([…], temperature not stated.

Regarding “TTGGGGTTATTTTGGGAGGGCGGGGGTT [RHA0385 (biotinylated)]”, the Kd in data set [1] was 0.05 nM; in data set [2], 1.1 nM.
